Measured values from US20060063208A1 (GENERAL HOSPITAL, published 2006).

Molecular target: T1, DRAGON-Fc fusion protein (DRAGON without its GPI anchor fused to the Fc portion of human IgG) (mouse; human, UniProt Q7TQ33 49-415, limits assumed)
T1 construct: Purified from stably transfected HEK293 cells; also called soluble DRAGON; not shown: Fc portion of the human IgG (vector pIgplus, R&D Systems)
T1 sequence: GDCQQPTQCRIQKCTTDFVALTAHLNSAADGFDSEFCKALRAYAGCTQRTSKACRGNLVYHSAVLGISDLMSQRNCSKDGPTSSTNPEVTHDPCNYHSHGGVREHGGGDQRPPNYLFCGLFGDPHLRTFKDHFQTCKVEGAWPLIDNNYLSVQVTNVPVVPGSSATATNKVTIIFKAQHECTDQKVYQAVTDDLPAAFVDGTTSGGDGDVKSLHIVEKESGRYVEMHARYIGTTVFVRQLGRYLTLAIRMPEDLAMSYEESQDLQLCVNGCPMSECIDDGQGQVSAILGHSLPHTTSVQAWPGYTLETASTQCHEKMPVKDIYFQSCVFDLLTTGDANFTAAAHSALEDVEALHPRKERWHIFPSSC
Experiment: DRAGON-Fc with [125I]-BMP2 and increasing unlabeled BMP2, capture on protein A plates

B1: BMP-2 (ligand, human, UniProt P12643 283-396, looked up)
chain: QAKHKQRKRLKSSCKRHPLYVDFSDVGWNDWIVAPPGYHAFYCHGECPFPLADHLNSTNHAIVQTLVNSVNSKIPKACCVPTELSAISMLYLDENEKVVLKNYQDMVVEGCGCR
modifications: iodinated with 125I where used as tracer
For B1, the Kd was 1.5 nM.
